Key:
Assay in all cases: receptor-Fc IP
VEGFR-3-Fc = target: T1, VEGFR-3-Fc (UniProt P35916 25-328)
T1 construct: domain: first three Ig domains; conditioned supernatant of 293T cells; also called VEGFR-3-Fc fusion protein; not shown: Fc fragment of the pIg vector
T1 sequence (looked up): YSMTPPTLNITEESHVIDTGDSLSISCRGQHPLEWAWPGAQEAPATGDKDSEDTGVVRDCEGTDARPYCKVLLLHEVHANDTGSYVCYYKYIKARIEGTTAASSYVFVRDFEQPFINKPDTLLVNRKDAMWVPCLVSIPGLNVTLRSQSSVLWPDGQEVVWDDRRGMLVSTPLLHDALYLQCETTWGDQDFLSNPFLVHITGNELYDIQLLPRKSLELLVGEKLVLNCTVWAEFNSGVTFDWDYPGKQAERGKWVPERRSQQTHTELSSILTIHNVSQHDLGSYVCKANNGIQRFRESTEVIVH
Procedure, shortened: (§1)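 Binding of ligand from sample supernatant measured by pentahistidine-antibody immunoprecipitation. IP mix: PBS with 1.5% BSA, 0.06% Tween 20, 3 μg/ml heparin and 400 ng/ml fusion protein, added 1:2 to sample supernatant.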

VEGFR-1-Fc = target: T2, VEGFR-1-Fc (UniProt P17948 27-338)
T2 construct: domain: first three Ig domains; expressed in Drosophila S2 cells, purified on Protein A sepharose; also called VEGFR-1-Fc fusion protein; not shown: Fc fragment from the Signal-pIgPlus vector
T2 sequence (P17948 27-338): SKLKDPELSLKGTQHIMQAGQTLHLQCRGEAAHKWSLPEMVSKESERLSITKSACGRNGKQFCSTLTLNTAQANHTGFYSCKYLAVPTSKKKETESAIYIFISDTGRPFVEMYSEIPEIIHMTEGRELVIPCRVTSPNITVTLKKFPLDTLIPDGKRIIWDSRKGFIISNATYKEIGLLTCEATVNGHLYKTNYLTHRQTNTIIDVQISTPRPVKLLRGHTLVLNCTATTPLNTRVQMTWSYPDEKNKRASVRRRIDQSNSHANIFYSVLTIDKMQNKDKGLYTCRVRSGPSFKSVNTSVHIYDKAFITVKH
Procedure, shortened: as §1

VEGFR-2-Fc = target: T3, VEGFR-2-Fc (UniProt P35968 20-322)
T3 construct: domain: first 3 Ig domains; conditioned supernatant of 293T cells; also called VEGFR-2-Fc fusion protein; not shown: Fc fragment of the pIg vector
T3 sequence (P35968 20-322): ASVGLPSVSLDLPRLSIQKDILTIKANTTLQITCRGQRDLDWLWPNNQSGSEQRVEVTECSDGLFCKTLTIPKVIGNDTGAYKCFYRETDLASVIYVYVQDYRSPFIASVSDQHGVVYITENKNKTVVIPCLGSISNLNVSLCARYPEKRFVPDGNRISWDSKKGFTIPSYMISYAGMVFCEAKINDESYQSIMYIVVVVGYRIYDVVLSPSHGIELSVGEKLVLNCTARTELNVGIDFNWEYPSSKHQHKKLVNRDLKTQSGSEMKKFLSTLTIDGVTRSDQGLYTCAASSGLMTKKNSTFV
Procedure, shortened: as §1

Measured: binding result

B1: 14-15 (ligand)
chain: GQNHHEVVKFMDVYQRSYCHPIETLVDIFQEFGVATNTFFKPSCVPLMRCGGCCNSEGLQCVPTEESNITMQIMRITVPLSQGPKPVTISFANHTSCRCMSKLD
no binding: all assays above

B2: 33-2 (ligand)
chain: GQNHHEVVKSIDNEWRKTQCMPIETLVDIFQEYPDEIEYIFKPPCVSVYRCGGCCNDEGLECMNTSTSYLSKTLFEIKPHQGQHIGEMSFLQHNKCECRPKKD
no binding: all assays above

B3: 33-4 (ligand)
chain: GQNHHEVVKSIDNEWRKTQCMPIETLVDIFQEYPDEIEYIFKPPCVSVYRCGGCCNSEGLQCMNTSTSYLSKTLFEIKPHQGQHIGEMSFLQHNKCECRPKKD
no binding: all assays above

B4: 33-6 (ligand)
chain: GQNHHEVVKSIDNEWRKTQCMPIETLVDIFQEYPDEIEYIFKPPCVSVYRCGGCCNDEGLECMNTSTSYLSKTLFEIKPHQGQHIGEMSFANHTSCRCMSKLD
no binding: all assays above

B5: 33-8 (ligand)
chain: GQNHHEVVKSIDNEWRKTQCMPIETLVDIFQEYPDEIEYIFKPPCVSVYRCGGCCNSEGLQCMNTSTSYLSKTLFEIKPHQGQHIGEMSFANHTSCRCMSKLD
no binding: all assays above

B6: 33-5 (ligand)
chain: GQNHHEVVKSIDNEWRKTQCMPIETLVDIFQEYPDEIEYIFKPPCVSVYRCGGCCNDEGLECVPTEESNITMQIMRIKPHQGQHIGEMSFANHTSCRCMSKLD
no binding: all assays above

B7: 33-7 (ligand)
chain: GQNHHEVVKSIDNEWRKTQCMPIETLVDIFQEYPDEIEYIFKPPCVSVYRCGGCCNSEGLQCVPTEESNITMQIMRIKPHQGQHIGEMSFANHTSCRCMSKLD
no binding: all assays above

B8: 33-14 (ligand)
chain: GQNHHEVVKSIDNEWRKTQCMPIETLVDIFQEYPDEIEYIFKPPCVSVYRCGGCCNDEGLECMNTSTSYLSKTLFEITVPLSQGPKPVTISFANHTSCRCMSKLD
no binding: all assays above

B9: 33-16 (ligand)
chain: GQNHHEVVKSIDNEWRKTQCMPIETLVDIFQEYPDEIEYIFKPPCVSVYRCGGCCNSEGLQCMNTSTSYLSKTLFEITVPLSQGPKPVTISFANHTSCRCMSKLD
no binding: all assays above

B10: 34-11 (ligand)
chain: GQNHHEVVKSIDNEWRKTQCMPIETLVDIFQEFGVATNTFFKPSCVPLMRCGGCCNSEGLQCVPTEESNITMQIMRITVPLSQGPKPVTISFLQHNKCECRPKKD
no binding: all assays above

B11: 34-14 (ligand)
chain: GQNHHEVVKSIDNEWRKTQCMPIETLVDIFQEFGVATNTFFKPSCVPLMRCGGCCNDEGLECMNTSTSYLSKTLFEITVPLSQGPKPVTISFANHTSCRCMSKLD
no binding: all assays above

B12: 31-4 (ligand)
chain: GQNHHEVVKSIDNEWRKTQCMPIETLVDIFQEYPDEIEYIFKPSCVPLMRCGGCCNDEGLECVPTEESNITMQIMRITVPLSQGPKPVTISFANHTSCRCMSKLD
no binding: all assays above

B13: 33-13 (ligand)
chain: GQNHHEVVKSIDNEWRKTQCMPIETLVDIFQEYPDEIEYIFKPPCVSVYRCGGCCNDEGLECVPTEESNITMQIMRITVPLSQGPKPVTISFANHTSCRCMSKLD
no binding: all assays above

B14: 33-15 (ligand)
chain: GQNHHEVVKSIDNEWRKTQCMPIETLVDIFQEYPDEIEYIFKPPCVSVYRCGGCCNSEGLQCVPTEESNITMQIMRITVPLSQGPKPVTISFANHTSCRCMSKLD
no binding: all assays above

B15: 34-13 (ligand)
chain: GQNHHEVVKSIDNEWRKTQCMPIETLVDIFQEFGVATNTFFKPSCVPLMRCGGCCNDEGLECVPTEESNITMQIMRITVPLSQGPKPVTISFANHTSCRCMSKLD
no binding: all assays above

B16: 23-1 (ligand)
chain: AHYNTEILKSIDNEWRKTQCMPREVCIDVGKEYPDEIEYIFKPPCVSVYRCGGCCNDEGLECVPTEESNITMQIMRIKPHQGQHIGEMSFLQHNKCECRPKKD
no binding: all assays above

B17: 23-3 (ligand)
chain: AHYNTEILKSIDNEWRKTQCMPREVCIDVGKEYPDEIEYIFKPPCVSVYRCGGCCNSEGLQCVPTEESNITMQIMRIKPHQGQHIGEMSFLQHNKCECRPKKD
no binding: all assays above

B18: 23-7 (ligand)
chain: AHYNTEILKSIDNEWRKTQCMPREVCIDVGKEYPDEIEYIFKPPCVSVYRCGGCCNSEGLQCVPTEESNITMQIMRIKPHQGQHIGEMSFANHTSCRCMSKLD
no binding: all assays above

B19: 21-1 (ligand)
chain: AHYNTEILKSIDNEWRKTQCMPREVCIDVGKEYPDEIEYIFKPSCVPLMRCGGCCNDEGLECVPTEESNITMQIMRIKPHQGQHIGEMSFLQHNKCECRPKKD
no binding: all assays above

B20: 23-13 (ligand)
chain: AHYNTEILKSIDNEWRKTQCMPREVCIDVGKEYPDEIEYIFKPPCVSVYRCGGCCNDEGLECVPTEESNITMQIMRITVPLSQGPKPVTISFANHTSCRCMSKLD
no binding: all assays above

B21: 23-15 (ligand)
chain: AHYNTEILKSIDNEWRKTQCMPREVCIDVGKEYPDEIEYIFKPPCVSVYRCGGCCNSEGLQCVPTEESNITMQIMRITVPLSQGPKPVTISFANHTSCRCMSKLD
no binding: all assays above

B22: 34-1 (ligand)
chain: GQNHHEVVKSIDNEWRKTQCMPIETLVDIFQEFGVATNTFFKPSCVPLMRCGGCCNDEGLECVPTEESNITMQIMRIKPHQGQHIGEMSFLQHNKCECRPKKD
no binding: all assays above

B23: 34-7 (ligand)
chain: GQNHHEVVKSIDNEWRKTQCMPIETLVDIFQEFGVATNTFFKPSCVPLMRCGGCCNSEGLQCVPTEESNITMQIMRIKPHQGQHIGEMSFANHTSCRCMSKLD
no binding: all assays above

B24: 34-5 (ligand)
chain: GQNHHEVVKSIDNEWRKTQCMPIETLVDIFQEFGVATNTFFKPSCVPLMRCGGCCNDEGLECVPTEESNITMQIMRIKPHQGQHIGEMSFANHTSCRCMSKLD
no binding: all assays above

B25: 34-3 (ligand)
chain: GQNHHEVVKSIDNEWRKTQCMPIETLVDIFQEFGVATNTFFKPSCVPLMRCGGCCNSEGLQCVPTEESNITMQIMRIKPHQGQHIGEMSFLQHNKCECRPKKD
no binding: all assays above
